Results: the supplement of paper PMC10567573

B1: ZNF449 (parent)
chain: FQEYDTDCEVFRQRFRQFQYREAA
B2: ZNF649 (parent)
chain: YHTGKTPFVCPECGQPCSQKSGLI

Variants of: B1
Test: protein stability index of a GFP-peptide fusion (GPS, HEK-293T) (PSI 1-6); higher = more stable
Details: c terminus: a fixed tail appended
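Also: lentivirally expressed fusions sorted by FACS into six bins by GFP to DsRed ratio, PSI derived from sequencing read proportions per bin multiplied by bin number.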

Protein stability index, by site and new letter:
A24: L 2.64; N 2.65; V 2.13; P 2.77; E 2.95; S 2.55; D 2.8; T 2.35; Y 2.33; Q 3.13; R 3.04; G 2.51; H 1.96; I 2.08; F 2.13; M 2.13; C 2.96; W 1.93; K 2.76
R21: E 3.16; G 3.14; C 2.92; A 2.44; V 2.51; D 3.13; H 2.53; K 2.65; Q 2.96; L 1.91; S 2.77; F 2.91; W 1.75; N 2.62; Y 2.54; I 2.71; M 2.69; P 2.44; T 2.86
F18: Y 2.59; D 1.79; W 3.11; I 2.86; L 4.05; M 3.07; Q 3.56; K 1.76; H 2.4; G 2.4; S 2.1; R 2.43; A 3.02; P 2.43; E 2.95; N 2.38; T 3.11; C 1.96
Q17: F 1.71; G 2.22; W 2.17; I 2.6; L 2.75; M 2.7; C 2; N 2.44; E 2.85; K 2.42; V 2.3; T 2.51; R 2.31; P 1.97; Y 2.86; S 2.39; H 2.44; D 3.13; A 2.67
A23: S 2.11; P 2.39; V 2.15; M 2.43; R 2.97; I 1.7; T 2.47; K 3.31; E 3.28; Q 2.89; H 2.54; C 2.65; L 2.51; F 2.15; D 2.73; Y 1.95; N 2.7; W 1.61
Y20: Q 3.73; H 3.27; S 3.15; A 3.12; I 3.37; E 3.52; R 2.88; K 3.21; T 3.46; N 3.48; D 3.49; P 2.81; L 2.83; W 1.47; G 3.31; F 2.57; C 2.2; M 3.03; V 3.27
R16: D 2.6; C 2.07; Q 2.78; S 2.21; T 2.28; G 2.44; A 2.51; L 2.59; F 2.44; E 2.27; P 2.11; H 1.98; M 3.38; K 2.98; W 2.2; N 2.46; V 2.44; Y 2.4; I 2.31
E22: Q 2.17; L 2.22; N 2.39; G 2.35; Y 1.95; P 1.72; S 2.07; H 2.36; C 2.39; T 2.62; R 1.65; K 2.75; A 2.43; V 2.12; F 2.69; I 1.99; M 1.83; D 2.91
Q19: N 2.29; R 2.65; P 2.16; I 2.53; W 2.35; T 2.3; K 2.44; D 2.18; G 2.67; S 2.11; H 2.6; E 2.35; M 2; Y 2.22; A 2.81; V 2.48; C 2.02; F 1.87
F15: N 2.88; P 3; R 2.76; H 3.33; W 2.62; K 2.22; Q 3.01; S 2.57; Y 2.17; I 2.44; L 2.42; V 2.98; T 2.66; M 2.84

Variants of: B2
Test: as above
Details: c terminus: a fixed tail appended

Protein stability index of substitutions, site by site:
T3: H 2.78; C 2.38; E 2.85; V 2.46; L 1.76; W 1.48; D 2.68; P 1.61; A 2.57; R 2.23; Y 1.27; I 1.56; N 2.03; K 2.87
P7: L 2.12; H 3.19; T 2.52; R 1.03; N 1.98; S 1.6; A 1.73; G 2.05; W 2.04; D 2.05; E 1.44; I 1.76; M 1.22; C 2.26; Q 1.77
H2: Y 2.42; F 2.25; A 1.99; K 2.76; I 2.36; P 2.15; L 2.2; G 1.98; W 2.06; E 3.55; Q 2.28; D 3.69; M 2.51; N 2.39; V 1.96; R 2.1
K5: G 2.54; H 1.86; A 1.62; F 1.88; T 1.13; S 2.62; W 2.1; N 1.81; Q 1.86; L 2; Y 3.06; M 2.44; D 1.77; R 2; E 2.16; P 2.66
T6: C 1.45; M 1.68; L 2.21; S 1.53; G 1.71; K 1.79; F 2.42; I 2.22; E 2.89; H 2.91; N 2.89; V 1.65; P 2.19; A 2.07; Q 2.96; W 1.96; D 1.92
G4: A 1.49; H 1.96; D 2.48; M 1.89; I 1.69; V 2.88; N 1.67; K 2.18; F 2.36; C 2.49; P 1.83; Y 1.69; L 2.41; T 2.62; R 1.62; Q 1.51; E 2.89
Y1: K 2.72; I 2.69; L 2.51; C 3.52; W 2.48; H 3.46; N 3.08; T 3.06; P 3.28; E 3.71; G 3.8; S 3.72; V 3.5; M 1.65; Q 2.47; A 3.92; D 3.98; R 2.69
F8: P 2.46; L 2.1; V 1.78; M 1.62; H 2.41; Y 1.54; K 1.82; G 1.8; C 1.83; E 2.52; S 2.15; I 2.24; D 2.17; R 2.09; N 2.16; T 1.67; A 1.84; Q 2.69
C10: D 1.61; F 1.98; H 1; E 1.33; I 2.33; G 2.31; K 1.76
V9: I 2.38; Y 3.65; R 2.24; W 2.49; G 1.79; E 1.61; F 3.17; L 2.99; T 2.43; N 3; A 3.38; H 2.47; D 2.39; K 1.58; Q 2.02
